Measured values published in patent US20230029341A1.

Target: HLA-A*02:01/NY-ESO-1 (modified, …) peptide-MHC on peptide-loaded T2 cells (human)
Experiment: cell-based or functional assay

C2057 + C2058 (TCR 1G4:α95LY alpha ECD and beta ECD, each fused to LILRB1 TM and ICD)
EC50[nM] of MAGE-A3 peptide for activator C563 in Jurkat NFAT-luciferase cells co-expressing this inhibitor; T2 cells with 50 uM NY-ESO-1 peptide: > 10000 nM
